This note sets out measurements from PMC3778555.

Like-named read-outs stand apart in the source and are kept apart here.

Test in all cases: EMSA
Series [1] deals with T1, ΔN20C17-HMGA1a (human, UniProt P17096 21-91).
For series [2], the target named is T1, ΔN20C17-HMGA1a. This is another data set of the same source.
Series [3] concerns the target T1, ΔN20C17-HMGA1a. The source holds these as a separate data set.
Series [4] concerns the target T2, ΔN20C17-HMGA1b (human, UniProt P17096-2 21-80).
Series [5] has as its target T1, ΔN20C17-HMGA1a. This is another data set of the same source.
Series [6] deals with T1, ΔN20C17-HMGA1a. This is another data set of the same source.
Series [7] concerns the target T1, ΔN20C17-HMGA1a. The source holds these as a separate data set.
Series [8] concerns the target T2, ΔN20C17-HMGA1b. This is another data set of the same source.

B1: A5-DNA (dsDNA)
DNA 1: GGCCCCGCGAAAAACCCGGCGGG
DNA 2: CCCGCCGGGTTTTTCGCGGGGCC
Regarding B1, in series [1], the binding result is listed as “binds”.

B2: A18-DNA (dsDNA)
DNA 1: CCCAAAAAAAAAAAAAAAAAACC
DNA 2: GGTTTTTTTTTTTTTTTTTTGGG
For B2, the binding result in series [2] is given as “binds”.

B3: A5T5-DNA (dsDNA)
DNA 1: CGAAAAATTTTTCG
DNA 2: CGAAAAATTTTTCG
Regarding B3, the binding result in series [3] and in series [4] was “binds” throughout.

B4: T9A9-DNA (dsDNA)
DNA 1: GCTTTTTTTTTAAAAAAAAAGC
DNA 2: GCTTTTTTTTTAAAAAAAAAGC
B4: the binding result in series [5] is “binds”.

B5: A9T9-DNA (dsDNA)
DNA 1: CGAAAAAAAAATTTTTTTTTCG
DNA 2: CGAAAAAAAAATTTTTTTTTCG
For the molecule B5, in series [6], the binding result is listed as “binds”.

B6: A19-DNA (dsDNA)
DNA 1: CCCAAAAAAAAAAAAAAAAAAACC
DNA 2: GGTTTTTTTTTTTTTTTTTTTGGG
As to B6, the binding result in series [7] and in series [8] was “binds” throughout.
